Assay: soluble on expression in E. coli; label from the status in PepcDB or PDB records

| Sequence | soluble on expression in E. coli |
| --- | --- |
| MPSSDPTQSSGFAGLRSTSWPVLGILSFGEELSGYDLKKWASYSVRFFYWSPSFSQVYSELKKLEDLGYVTSRTVVDDEARVKPKRLYKITDAGMAVMRSWAREAPIDPPVLKHGVMLRMWLGHLTEPEQLKDALKEHISYVEGMSRQAALDARDSDVEPTWAFAHMVNKWSERYYAAESELAKQMLADIDEAVERMHGEGTPEHPGVPKPTASHSIRRSREAQKEYQAAMKAAQDADDEAERED | not soluble |
| MSLRPRAQTAGTWPRVCIESVTPSVDNGRFPVKRTVGDRICVEADAFCDGHDRIAVAVLWRPADAKAWASAPMRALGNDRWRAEFPLERIGTYEFRVEAWRDVFATLHADLEKKRAANTVLPVDVQEAVAAVQAAQARSDGALAERLQTVLTRIGAQSEPLQQLAIVLEPDTAQAMALADDKPFRSEYPVTFRVESERRAAHFSSWYELFPRSQSGDASRHGTFDDVIKRLPHIRAMNFDVLYMPPIHPIGLNNRKGRNNSVTAVEGEPGSPYAIGATDGGHTEVHAELGGLEGFRRLIEAARAQGLEVALDFAIQCAPDHPWLKEHKDWFTWRADGSIPYAENPPKKYQDIVNVDFYASGAVPDLWNTLRDAVLFWVNEGVTLFRVDNPHTKPFPFWEWLIADVRGRRPDVVFLSEAFTRPKMMYRLAKCGFSQSYTYFTWRNHKHELRAYVEELNDGVPRECFRPHFFVNTPDINPLFLQTSGRNGHLIRAALATTLSGLWGMYQGFELCEATPLAPGKEEYLDSEKFQLRAWPERVPGDIVEEITRFNQLRRMHPELQSHLGTRFYQAHNDQVLYYGKFLDAGYLSRSRSMVLVAINLDPHAGQDADIEIPLWELGLPDHASVAVEDLWDGHRFAWHGKYQHIRLEATRPFALWRIRAGEGHHHHHH | soluble |
| GHMREMLQVERPKLILDDGKRTDGRKPDELRSIKIELGVLKNADGSAIFEMGNTKAIAAVYGPKEMHPRHLSLPDRAVLRVRYHMTPFSTDERKNPAPSRREIELSKVIREALESAVLVELFPRTAIDVFTEILQADAGSRLVSLMAASLALADAGIPMRDLIAGVAVGKADGVIILDLNETEAMWGEADMPIAMMPSLNQVTLFQLNGSMTPDEFRQAFDLAVKGINIIYNLEREALKSKYVEFKEEGV | soluble |
| MWYHRLSHLHSRLQDLLKGGVIYPALPQPNFKSLLPLAVHWHHTASKSLTCAWQQHEDHFELKYANTVMRFDYVWLRDHCRSASCYNSKTHQRSLDTASVDLCIKPKTIRLDETTLFFTWPDGHVTKYDLNWLVKNSYEGQKQKVIQPRILWNAEIYQQAQVPSVDCQSFLETNEGLKKFLQNFLLYGIAFVENVPPTQEHTEKLAERISLIRETIYGRMWYFTSDFSRGDTAYTKLALDRHTDTTYFQEPCGIQVFHCLKHEGTGGRTLLVDGFYAAEQVLQKAPEEFELLSKVPLKHEYIEDVGECHNHMIGIGPVLNIYPWNKELYLIRLFKEKQNTVNRQWNSSLQCDIPERILTYRHFVSGTSIEHRGSLI | not soluble |
| DGPYLQILEQPKQRGFRFRYVCEGPSHGGLPGASSEKNKKSYPQVKICNYVGPAKVIVQLVTNGKNIHLHAHSLVGKHCEDGVCTVTAGPKDMVVGFANLGILHVTKKKVFETLEARMTEACIRGYNPGLLVHSDLAYLQAEGGGDRQLTDREKEIIRQAAVQQTKEMDLSVVRLMFTAFLPDSTGSFTRRLEPVVSDAIYDSKAPNASNLKIVRMDRTAGCVTGGEEIYLLCDKVQKDDIQIRFYEEEENGGVWEGFGDFSPTDVHRQFAIVFKTPKYKDVNITKPASVFVQLRRKSDLETSEPKPFLYYPEIKDKEEVQRKRQK | soluble |
| SNAKDVLGLTLLEKTLKERLNLKDAIIVSGDSDQSPWVKKEMGRAAVACMKKRFSGKNIVAVTGGTTIEAVAEMMTPDSKNRELLFVPARGGLGEDVKNQANTICAHMAEKASGTYRLLFVPGQLSQGAYSSIIEEPSVKEVLNTIKSASMLVHGIGEAKTMAQRRNTPLEDLKKIDDNDAVTEAFGYYFNADGEVVHKVHSVGMQLDDIDAIPDIIAVAGGSSKAEAIEAYFKKPRNTVLVTDEGAAKKLLRDE | soluble |
| MSEAHPPELKKFMDKKLSLKLNGGRHVQGILRGFDPFMNLVVDDTIEMAPGGQMNTIGMVVIRGNSIIMLEALERV | soluble |
| MSLKNLGSPVFFFQERPGKDGKPFKMVKFRSMRDALDSDGIPLPDGERLTPFGKKLRAASLDELPELWNILKGEMSLVGPRPLLMQYLPLYDNFQNRRHEMKPGITGWAQVNGRNALSWDEKFACDVWYIDHFSLCLDIKILLLTVKKVLIKEGISAQGEATMPPFTGKRKLAVVGAGGHGKVVADLAAALGRYREIVFLDDRAQGSVNGFSVIGTTLLLENSLSPEQYDVAVAVGNNRIRRQIAEKAAALGFALPVLVHPDATVSPSATVGQGSVVMAKAVVQAGSVLKDGVIVNTAATVDHDCLLNAFVHISPGAHLSGNTHIGEESWIGTGACSRQQIRIGSRATIGAGAVVVRDVSDGMTVAGNPAKPLPRKNPETSTAEGHHHHHH | not soluble |
| MKSLSALEAEQWITIRSIFLIDLPFRSFSFSLPAEEKQDLQCNLQNLVNHNFSFLQVIHLQVSHINDADVLTGLNGRIGSFLLPSIATGTGTATGTAATTGASAITASSRSRRILGDEFEDHVIVPATCGSRAVVGKPQRIIDLETKVDTSNIPHRTVLFLFHTGTSKRGIENPQAVNLHLIPCYEHLLHRADKGLHHMLHIFHRKRTDRLDLTRQRLDRIKFRFPRLGFEHIHHRRFVITNLFFALIAHHRHCCHTEFVLKKRRTFSLSVGETKIRQCTGNFPDYDGLCRTMTG | not soluble |
| GPGSMRDHAPTSAASATALVNPSLPNSSVVDASLTGAQKKSGASSTRQRPPTPLPSTTPPRSEQHYRMTETEAWLSASFGNLATMGDSNGNSGGARRHGGPSPSAAFPLTFQEVPAAVVNHLLSRITLIQSEEQRHRDAVTVEGREVSGSPEMADGAPLPTRNECRAIGEFMLANDTLLGRRPREGIDASACAPSALRLVSMPLFGDHRLATYSPQGAAANRRRRRRSKNRRAAGGGGDDVGELPCLATGNAGLAEPQEARGNGAGATPSTTSHPYSPRTFFVATQSHDVRRRLAAVTPLLRLTTNPDALWIEQRGTAYHYGEEGAEARRPHIDMKGLGNCSSFSVAAAASSRGGRGSSEPGPPRSASFSHTPSFPHAATATTTVIAAAPQLSRADVAFMKHLGTAAEVPLPAKPSHHPHQQEQQQLQLRASPASDTGVSNRAPVDRKRRRQKGQNPLSMKKKQRREVFRAH | not soluble |
| LEQLSMNLLDGALRIEHFALPQTKVAYLHLSQINFEQILALLKYQQIELKGRANATFPFWIEGKPCYVCNGSMAQAVSSRLKIAPELMQAISQSNGYSERLLAYLLHDTRITDLTSKVNINSEGEMALQAKLNMQLNQQAQTKINFNYHHQENVFKLWRTLNAGTYVEQNFENSIYQKLDRTNE | not soluble |
| MGSDKIHHHHHHANQKSEHDHVAKVPKSYLPSGSVMAKEASANLKLSEKLSLIDGQWDSTTDDAASYEMDEQDYQAVATCRKSIEKLYDEKLYPVNLSPDYSNWYTWEAAAKKASDNTFNTYTAYYWIIRFEKYDGTQNHTIWMLEDGTIIMAKAHMKDISDMSEYKEVLQADDESQAENDLSAYKGYFDYSGIDFSKLNLISETTAVEQKNNESYEVLQFLQENEYVYAIHEK | not soluble |
| AHHHHHHGSPPIIDPHILRSLHRSELRRRILHYLYEIYPSATYLSEIARVVSSDPSNVRGALVGLGNRYNSESSLVYLGLVEEIVNNGFKYYRLTEYGKKVVEMLKDYQTYYRKFM | not soluble |
| MVTLEELKAVFKPKLKPIIWREDSLDLLDQSALPFQTTYITVKTPEEVAKAIKLMQVRGAPAIGITAGYGMVLALISTKPNTLNEAIEELVKAKQIMDQARPTAVNLSWATSRMLNFAKKKIEEGEAKSVSELIQLMKEEANRIYEEELEAELKIGMYGLEKISDGDTILTQCNAGGLATGTGLGTALAPVKLAHYLGMKVSVIAPETRPWLQGSRLTVYELMAEGIQVTLITDTAVGLVIYKNMVNSVMVGADRILKDGHVFNKIGTFKEAVISHELGIPFYALAPSSSFDLKSKVDEIKIEERDPNEVRTIRGIPIVPENVKVYNPVFDVTPPKYITALITEKGVIYPPFEKNIPKIIGL | soluble |
| MLPRFADIFQQGNRWLNWLEKQPEGAVRPVVIESVTKIMACGTTLMGYTNRCCSSPDCCHTKKVCFRCKSRSCPHCVVKAGAQWIQYLLSLVPYCPWQHIVFTLPCQYWSLVFHNRWLLAKMSRIAADVILEICHQADVEPGIFTVIHTWGRDQQWHPHIHLSTTAGGVTSGHTWKNLHFYARKVMSMWRYRITRLLSRKYPYLVMPDALAAEGSSKREWNRFLDTHYRRGWNVNVSRVMDNATHVAVYFGSYLKKPPVPMSRLEHYAGQDEIGLRYNSHRTKREEYLLMSGDESMERFSWHVADKGFRMVRYYVFLSPAKRRLLEEVVYIITETVRKTAMQITWRGMYQRLLKVDPLKCVLCGSQMRFTGLKRGYRLAEQVLMHEPLARMRWCG | not soluble |
| MKALLPGLYLLPVPIPYPLKTVNLYLLQGAGEVALVDTALGTRAARGALELHLAELGLCFQDVKTILLTHHHPDHYGLSGFFEGLGARVFLHEEEFARGHRFWREPEAFAEASWRLFLDHGTPEGALQGIRETVEKTRERVHPPQNPLPLRDGEALEVAGKRLRVLWTPGHADGHAAFYLEEEGVLLAGDALLEKVSPNVGLWAYTRENPLKDFLRSLDRLADLGARVAYAGHFGPIADVRQRAEELKAHHQARLEALLALLDGPKTAWELSLHLFPQELDPAGRRFAFAETLAHLEYLREEGAVGRGGPPYRYFRR | soluble |
| MSLKAKAAFFDIDGTLYREGLISEVFKKLIKYEIIDEEKWYKEVRPEFEKWDNRKGDYDDYLLKMTEIYVDALNGLSKSQVEFIASQVVNQKGERVYTYTRDRIKWHKERGHKIITISGSPIELVRNMAEKYGFDDYRGAEYLLDENDVYTGEVIPMWDSKSKERAVHELEAKYNIDLGESYAYGDTSGDLTMLKMVGNPVCINPTKELVKEILSDEEVKNKIRIIVERKDMIYKISSRCLECDCEFVLEGHHHHHH | soluble |
| MFKRFRRLRLNENLRSMVRENSLSVNDLIYPLFVVNGTGIKKEISSMPDVFQMSLDEILKECQNVVNLGIKAIILFGVLENEKKDSCGSDALDDEGLVARSIREIKKNFPDLFIISDLCFCEYTDHGHCGIIDPKIKSVDNDATLEISAKQALVHARAGVDMIAPSGMMDGVITTLRKALDKEGFENLPIMAYSTKFASSYYGPFRDVAESAPSYGDRKSYQMDFANGKEALEESLEDEAQGADILMVKPALAYLDVVKEISLHSNLPLCIYNVSGEYAMLKAAKNAGVIDYEKVLYETIIAFKRAGAKLIITYHAKELAKMLKGEK | soluble |
| GPGSMVAKQHFLAAVKMTPARGAAAALSPPQTAEVVGRTAAGGKGCSGSFVDRRLENVMARAREMGWTSPESLIESLKAAQWHSHGKTPAIAEAEAAALPSPHVPAFKPDALSSSSDRHAQPRLPQPRDETPHQARKGAAVSGANSSITECWSGHGPVSQQPHTPHQGADACRAFPSSRTESADSAMRVEATRVLCSGGAAHAGLPSESLLSPPAAESSRVAGTGHAYPPAPLQGHEGLVSSGLTNPLTRLTMPTSATAGAAAAQPLIELEQELVKLRHLVRTLESKQFVHAHQSSAQASELQAQCAELQHQQLAQAKELRLALARLISVGNELEGLRDVKTHLQMQLTASQQESARLRDALLMGETRARDVQ | not soluble |
| MGSDKIHHHHHHMCIYCISKQVFCLSGLRFPYGFTPMGLHLRSLNMAYINKSNVSILRSLSCASISLYYSMSAAASHLEVDDPALAERCELEMGWQQPRSDHARTQLNATTTCSRNQWEWHVGLASNVNDDIREEQAEVGIKLPLNLNSHSDSNRQQDDWHSALVINLQKNLDASNELATEVFGIFGKTLSDSDVSLYANVGFTHEFNQSTQLLVGIAAAHELSSHHRVITELYQKELSETAYQFAYQHTPQQQLQLELSLGNALRGNALQLGADITFYFGH | not soluble |

From the DeepSol protein solubility set
